What all share (settings): both partners purified
For assay [1], the target named is T1, SARS-CoV-2 Spike Glycoprotein (S1) His-Tagged RBD (SARS-CoV-2, UniProt P0DTC2).
T1 construct: source: bought: The Native Antigen Company (REC31849), produced in HEK293 cells
As to the kind of experiment: BLI.

The target of assay [2] is T2, human serum albumin (Homo sapiens, UniProt P02768).
T2 construct: also called HSA
In words: BLI. (In general: In BLI a coated tip is dipped into the sample, and binding shifts an interference pattern.)

Assay [3] deals with T2, human serum albumin. As to the kind of experiment: BLI. This is another data set of the same source.
Assay [4] has as its target T2, human serum albumin. In words: BLI; HSA (4 μM) loaded on APS sensors; DesAbs at 1 μM, 500 nM and 250 nM (Nb.B201 at 800 and 400 nM); 170 mM NaCl, 50 mM tris-HCl, 10 mM MgCl2 pH 7.4; 25°C; global fit, Kd = Koff/Kon.
The target of assay [5] is T1, SARS-CoV-2 Spike Glycoprotein (S1) …. As to the kind of experiment: BLI. The source holds these as a separate data set.
In assay [6] the target is pancreatic bovine trypsin (Bos taurus, UniProt P00760). In words: BLI; His-tagged DesAb (7.5 μM) loaded to saturation on Ni-NTA sensors, trypsin in solution; 170 mM NaCl, 50 mM tris-HCl, 10 mM MgCl2 pH 7.4; 25°C.
Sequence of pancreatic bovine trypsin (P00760 24-246): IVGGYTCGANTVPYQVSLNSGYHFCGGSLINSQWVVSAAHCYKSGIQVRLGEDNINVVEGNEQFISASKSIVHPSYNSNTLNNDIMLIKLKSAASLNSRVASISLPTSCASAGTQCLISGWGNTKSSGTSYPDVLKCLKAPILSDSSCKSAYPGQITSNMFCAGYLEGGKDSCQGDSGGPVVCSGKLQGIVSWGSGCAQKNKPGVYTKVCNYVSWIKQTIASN
The target of assay [7] is T2, human serum albumin. In words: BLI; HSA (4 μM) loaded on APS sensors; DesAbs at 1 μM, 500 nM and 250 nM (Nb.B201 at 800 and 400 nM); 170 mM NaCl, 50 mM tris-HCl, 10 mM MgCl2 pH 7.4; 25°C; global fit, Kd = Koff/Kon. The source holds these as a separate data set.

B1: DesAb-RBD-C1 (VHH)
VHH: EVQLEESGGGLVQPGGSLRLSCAASGFNIKDTYIGWVRQAPGKGEEWVASIYPTSGYTRYADSVKGRFTISADTSKNTAYLQMNSLRAEDTAVYYCAAGSGSSATEVYEEFDYWGQGTLVTVSS
The Kd is a measure of binding affinity in units of concentration. A low value points to higher affinity. In the case of B1, binding in assay [1] was put at a Kd of 210 nM.

B2: DesAb-RBD-C2 (VHH)
VHH: EVQLEESGGGLVQPGGSLRLSCAASGFNIKDTYIGWVRQAPGKGEEWVASIYPTSGYTRYADSVKGRFTISADTSKNTAYLQMNSLRAEDTAVYYCAAGSVVADLSVEEFDYWGQGTLVTVSS
In assay [1], B2 gave a Kd of 130 nM.

B3: DesAb-HSA-D3 (VHH)
VHH: EVQLQESGGGLVQAGGSLRLSCAASGELYALISMGWFRQAPGKEREFVAAISRNGDNTYYTDSVKGRFTISRDNAKNTVELQMNSLKPEDTAVYYCAADKFASPDGSVTIMTNEYDYWGQGTQVTVSD
In turn, B3 registered a Kd with human serum albumin [2] of 180 nM.

B4: DesAb-HSA-P1 (VHH)
VHH: EVQLEESGGGLVQPGGSLRLSCAASGFNIKDTYIGWVRQAPGKGEEWVASIYPTSGYTRYADSVKGRFTISADTSKNTAYLQMNSLRAEDTAVYYCAAGSIQKSLQTAESILEEFDYWGQGTLVTVSS
The molecule B4 displayed a Kd in the assay with human serum albumin [2] of 120 nM.

B5: Nb.B201 (VHH)
VHH: QVQLQESGGGLVQAGGSLRLSCAASGYISDAYYMGWYRQAPGKEREFVATITHGTNTYYADSVKGRFTISRDNAKNTVYLQMNSLKPEDTAVYYCAVLETRSYSFRYWGQGTQVTVSS
notes: also called yeast display-derived anti-HSA nanobody
Regarding B5, the binding result with human serum albumin [3] is recorded as “binds”.

B6: DesAb-HSA-P2 (VHH)
VHH: EVQLEESGGGLVQPGGSLRLSCAASGFNIKDTYIGWVRQAPGKGEEWVASIYPTSGYTRYADSVKGRFTISADTSKNTAYLQMNSLRAEDTAVYYCAAGSAQAGNAEEAEEEFDYWGQGTLVTVSS
In the assay with human serum albumin [4], B6 returned a Kd of 380 nM.

B7: DesAb-Tryp (VHH)
VHH: EVQLEESGGGLVQPGGSLRLSCAASGFNIKDTYIGWVRQAPGKGEEWVASIYPTSGYTRYADSVKGRFTISADTSKNTAYLQMNSLRAEDTAVYYCAAGSQSGYHFEEFDYWGQGTLVTVSS
On to B7, for which the results for the binding result (in assay [5]; with human serum albumin [7]) were “no binding (tested: 4 μM)” and “no binding (tested: 1 μM)”, respectively. Moreover, in assay [6], the equilibrium dissociation constant (Kd) was found to be 1800 nM.

The record behind these values is paper PMC9651861 (Science Advances, 2022).
